The values that follow come from US20240343816A1 (INSTITUTE OF HEALTH AND MEDICINE HEFEI COMPREHENSIVE …, published 2024).

This experiment deals with T1, human-derived IL-6Rα protein (human, UniProt P08887 20-365, limits assumed).
T1 construct: Described only as 'soluble human IL-6Rα protein'; also called h-IL-6Rα; soluble human IL-6Rα protein
T1 sequence (looked up): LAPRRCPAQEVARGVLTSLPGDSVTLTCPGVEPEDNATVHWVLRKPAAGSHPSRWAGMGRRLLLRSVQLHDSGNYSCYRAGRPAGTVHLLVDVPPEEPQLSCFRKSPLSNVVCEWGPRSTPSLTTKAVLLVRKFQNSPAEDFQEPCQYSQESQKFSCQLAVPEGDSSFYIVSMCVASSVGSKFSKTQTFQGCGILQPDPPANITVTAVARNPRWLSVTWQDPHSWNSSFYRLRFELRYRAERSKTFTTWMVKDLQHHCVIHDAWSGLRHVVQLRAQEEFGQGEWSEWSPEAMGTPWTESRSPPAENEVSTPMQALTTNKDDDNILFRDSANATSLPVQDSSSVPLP
As to the kind of experiment: SPR, h-IL-6Rα immobilized on a CM5 chip, 2S3-3D as analyte at 250, 125, 62.5, 31.2 and 15.6 nM. As to the method:
The binding kinetics experiments for detecting antigen-antibody were carried out by Biocare Molecular Biological Interaction Platform. […] The binding time was set at 180 s/dissociation time at 200 s. The binding and dissociation of antigen and antibody were observed, and the data were analyzed by the corresponding analysis software.

B1: nanobody 2S3-3D (VHH)
VHH: QLQLVESGGGLVRPGGSLRLSCTIHGVTLDWYAVGWFRQAPGKEREGVSCISSSDGSTYYADSVKGRFTISRDNVKNTMYLQMNSLKPEDTAVYYCAMVFTTAQAMGVPFHDFEYDYWGPGTQVTVSS
notes: Alpaca-derived VHH expressed from pTT5 in 293F cells; also called anti-h-IL-6Rα nanobody; the nanobody
Consider B1, for which the equilibrium dissociation constant (Kd) was 6.33 nM. This counts as single-digit nanomolar.
